Source: patent publication US20100055034A1 (DOMPE PHA MA S P A, published 2010)

B1: AFRA Fab fragment (Anti Folate Receptor Alpha human Fab, kappa light chain) (Fab, V domains shown)
VH: NVQLVESGGGLVQPGRSLRLSCTTSGFTFGDYAMIWARQAPGKGLEWVSSISSSSSYIYYADSVKGRFTISRDNAKNSLYLQMNSLRAEDTAVYYCARERYDFWSGMDVWGKGTTVTVSS
VL: EIVLTQSPASLAVSPGQRATITCRASESVSFLGINLIHWYQQKPGQPPKLLIYQASNKDTGVPARFSGSGSGTDFTLTINPVEANDTANYYCLQSKNFPPYTFGQGTKLEIKR
notes: Made in E. coli periplasm; also called AFRA monomer; Fab AFRA
B2: C4 Fab fragment (human anti-folate receptor alpha Fab, lambda light chain) (Fab, V domains shown)
VH: QVQLVESGGGLVQPGRSLRLSCTTSGFTFGDYAMIWARQAPGKGLEWVSSISSSSSYIYYADSVKGRFTISRDNAKNSLYLQMNSLRAEDTAVYYCARERYDFWSGMDVWGKGTTVTVSS
VL: QSALTQPASVSGSPGQSITISCTGTSSDVGSYNLVSWYQQHPGKAPKLMIYEGSKRPSGVSNRFSGSKSGNAASLTISGLQAEDEADYYCQSYDSSLSVVFGGGTKLTVLG
notes: It says only that C4 and AFRA share the heavy chain except for Q1N in AFRA, so C4 has Q at position 1; also called Fab C4
B3: C4 F(ab')2 natural dimer (other)
light: QSALTQPASVSGSPGQSITISCTGTSSDVGSYNLVSWYQQHPGKAPKLMIYEGSKRPSGVSNRFSGSKSGNAASLTISGLQAEDEADYYCQSYDSSLSVVFGGGTKLTVLGQPKAAPSVTLFPPSSEELQANKATLVCLISDFYPGAVTVAWKADSSPVKAGVETTTPSKQSNNKYAASSYLSLTPEQWKSHRGYSCQVTHEGSTVEKTVAPTECS
heavy: QVQLVESGGGLVQPGRSLRLSCTTSGFTFGDYAMIWARQAPGKGLEWVSSISSSSSYIYYADSVKGRFTISRDNAKNSLYLQMNSLRAEDTAVYYCARERYDFWSGMDVWGKGTTVTVSSASTKGPSVFPLAPSSKSTSGGTAALGCLVKDYFPEPVTVSWNSGALTSGVHTFPAVLQSSGLYSLSSVVTVPSSSLGTQTYICNVNHKPSNTKVDKKDKTSC
modifications: C-terminal hinge cysteine disulfide-bonded to the second Fab'
notes: The preparation is heavily contaminated: 29% L2H2 dimer, 43% L2H pseudo-dimer and 25% free heavy chain; For heavy chain position 1 see the note of m2; also called F(ab')2-C4
B4: AFRA F(ab')2 natural dimer (other)
light: EIVLTQSPASLAVSPGQRATITCRASESVSFLGINLIHWYQQKPGQPPKLLIYQASNKDTGVPARFSGSGSGTDFTLTINPVEANDTANYYCLQSKNFPPYTFGQGTKLEIKRTVAAPSVFIFPPSDEQLKSGTASVVCLLNNFYPREAKVQWKVDNALQSGNSQESVTEQDSKDSTYSLSSTLTLSKADYEKHKVYACEVTHQGLSSPVTKSFNRGEC
heavy: NVQLVESGGGLVQPGRSLRLSCTTSGFTFGDYAMIWARQAPGKGLEWVSSISSSSSYIYYADSVKGRFTISRDNAKNSLYLQMNSLRAEDTAVYYCARERYDFWSGMDVWGKGTTVTVSSASTKGPSVFPLAPSSKSTSGGTAALGCLVKDYFPEPVTVSWNSGALTSGVHTFPAVLQSSGLYSLSSVVTVPSSSLGTQTYICNVNHKPSNTKVDKKDKTSC
modifications: C-terminal hinge cysteine disulfide-bonded to the second Fab'
notes: F(ab')2 made by natural oxidation of Fab'; By SDS-PAGE the preparation is 80% L2H2 dimer, 16% L2H and 4% free heavy chain; For Q1N see the note of m1; also called F(ab')2-AFRA; AFRA dimer

What was measured:
[1] = molecular target: T1, recombinant soluble human alpha folate receptor with His6 purification tag (human, UniProt P15328 25-232); experiment: SPR (BIAcore), recombinant FR amine-coupled to CM5 chip, Fab monomer 3.125-200 nM in flow
T1 construct: Expressed in CHO-K1 cells and purified from the supernatant; also called soluble alpha FR; recombinant FR
Method: (§1) FIG. 3 (BIAcore binding): Determination of antibody fragments binding parameters on alpha folate receptor. For this several concentrations of Fab monomer (from 3 to 200 nM) were flowed in the sensorchip cell previously coated with the recombinant receptor and binding was registered for 30 minutes. After this time period washing was monitored for another twenty minutes.
(§2) The target protein was coated on […] BIAcore sensorchip and several concentrations of both antibody fragments were used to determine the binding kinetics. In particular, recombinant FR was covalently bound to a CM5 sensor chip using the amine coupling kit (Pharmacia) with an antigen concentration of 0.6 μg/ml in 10 mM sodium acetate, pH 4.8 yielding a surface of 280 RU. Residual activated groups were blocked by injection of […] ethanolamine (1.0 M pH 8.5). […] Evaluation was performed for at least 30 minutes. Subsequently, detachment of residual antibody bound to the sensor chip was performed with 100 mM Glycine Buffer pH 2.7.

[2] = molecular target: T1, recombinant soluble human alpha folate …; experiment: SPR (BIAcore), KD of AFRA Fab against KD of C4 Fab
Method: as §1, §2

[3] = molecular target: T2, human folate receptor alpha as expressed on cells (human, UniProt P15328 25-234); experiment: cell ELISA on fixed A431-FR cells, F(ab')2; KD = concentration at half of plateau signal
T2 construct: GPI-anchored on the cell surface; Natural expression on OVCAR3 and IGROV1 ovarian carcinoma cells, transfected into A431 cells (A431-FR); also called alpha FR; FR-alpha
Method: (§3) 4×10⁴ cells (human ovarian carcinoma cell lines OVCAR3 (ATCC) and IGROVI (a gift from Dr J. Bénard, Institut Gustave Roussy, Villejuif, France), and A431-FR⁽¹⁷⁾ cells which are human epidermoid carcinoma cells transfected with folate receptor alpha,) were seeded in each well of a 96 wells format plate, and grown until a confluent monolayer was obtained. Cells were fixed, for 5 minutes, at room temperature with 0.1% glutaraldehyde in PBS. Plates were washed twice with PBS, then once (5 minutes) with 0.1M glycine in PBS+0.02% NaN₃, successively five times with PBS and finely with PBS containing 1% BSA and 0.02% NaN₃.
(§4) An anti-human IgG (Fab specific, Sigma) peroxidase conjugated diluted 1:1000 in PBS+0.03% BSA was used to reveal antibodies fragment binding.
(§5) Since no signal could be detected on the A431 mock cells which are cells transfected with the empty vector, as compared to the cells transfected with FR-alpha, both AFRA and C4 antibodies were judged to be specific for the alpha folate receptor. […] Table I reports ELISA determination of KD values of F(ab′)₂ of C4 and AFRA antibodies fragments. The KD was determined as to be the concentration at which half of the ELISA plateau signal is obtained.

[4] = molecular target: T2, human folate receptor alpha as …; experiment: cell ELISA on fixed OVCAR3 cells, F(ab')2; KD = concentration at half of plateau signal
Method: as §3, §4, §5

[5] = molecular target: T2, human folate receptor alpha as …; experiment: cell ELISA on fixed IGROV1 cells, F(ab')2; KD = concentration at half of plateau signal
Method: as §3, §4, §5

T2 sequence (P15328 25-234): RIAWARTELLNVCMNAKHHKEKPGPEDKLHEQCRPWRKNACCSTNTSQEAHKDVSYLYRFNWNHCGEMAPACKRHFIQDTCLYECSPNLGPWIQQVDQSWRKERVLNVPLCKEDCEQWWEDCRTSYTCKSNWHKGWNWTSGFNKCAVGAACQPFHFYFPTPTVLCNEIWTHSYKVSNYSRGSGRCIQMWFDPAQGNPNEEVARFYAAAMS
T1 sequence (P15328 other isoform, or with tags, fused parts or gaps limits assumed): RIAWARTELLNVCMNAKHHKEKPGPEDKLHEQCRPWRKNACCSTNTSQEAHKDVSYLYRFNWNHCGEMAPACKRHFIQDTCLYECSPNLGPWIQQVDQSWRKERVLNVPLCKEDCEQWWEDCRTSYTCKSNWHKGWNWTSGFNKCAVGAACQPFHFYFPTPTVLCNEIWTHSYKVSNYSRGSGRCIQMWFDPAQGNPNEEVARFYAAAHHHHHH

| Binder | Kd [1] | fold lower KD than C4 [2] | Kd [3] | Kd [4] | Kd [5] |
| --- | --- | --- | --- | --- | --- |
| B1 | 43.9 nM | 3 fold | – | – | – |
| B2 | 168 nM | – | – | – | – |
| B3 | – | – | 1.2 nM | 11 nM | 118 nM |
| B4 | – | – | 2.5 nM | 26 nM | 57 nM |
